Assay results published in PMC12115182, “Inhibition of RPA32 and Cytotoxic Effects of the Carnivorous Plant Sarracenia purpurea Root Extract in Non-Small-Cell Lung Cancer Cells”.

Biological target: huRPA32 (human RPA32) (human, UniProt P15927 1-270)
Experiment: EMSA; [Protein]50 by linear interpolation; DNA 30 fmol/uL; no extract; 40 mM Tris-HCl pH 7.5, 50 mM NaCl, 37 C, 60 min; 8% native PAGE in TBE, 100 V 1 h
Conditions: protein: recombinant; single-stranded

Chain of huRPA32 (human RPA32) (P15927 whole entry): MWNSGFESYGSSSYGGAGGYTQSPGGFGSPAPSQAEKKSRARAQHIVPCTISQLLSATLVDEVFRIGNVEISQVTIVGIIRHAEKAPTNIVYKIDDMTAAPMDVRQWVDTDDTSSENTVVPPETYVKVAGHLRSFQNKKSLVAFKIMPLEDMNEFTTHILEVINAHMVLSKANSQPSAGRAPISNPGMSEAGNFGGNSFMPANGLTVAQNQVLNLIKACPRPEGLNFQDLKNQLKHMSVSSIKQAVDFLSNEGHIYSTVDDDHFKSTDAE

Binder: TTTTTTTTTTTTTTTTTTTTTTTTT (ssDNA) [dT25]
- apparent K (half saturation): 5.7 ± 0.6 µM
